Data on four molecules can be found in article PMC3462211, “3D Domain Swapping Causes Extensive Multimerisation of Human Interleukin-10 When Expressed In Planta” (PLoS ONE, 2012).

Bounds are passed on as bounds.

Broadly, the stoichiometry N is the number of molecules, sites or subunits per partner or assembly.

Data set [1] has as its target human IL-10^mono fused to the C-terminus of constant domains 2 and 3 of human immunoglobulin A2m1 (Fcα-hIL-10^mono), plant produced (human) (UniProt P22301). Put plainly: non-reducing SDS-PAGE with Western blot; soluble plant proteins (crude leaf extract, desalted on G25 Sephadex, filter sterilised) separated under non-reducing conditions on a NuPAGE 12% Bis-Tris gel; detected with antibodies against hIL-10 or IgA. Background: Immunoblotting shows a protein as a band on a membrane.

Data set [2] concerns the target human IL-10 fused to the C-terminus of constant domains 2 and 3 of human immunoglobulin A2m1 (Fcα-hIL-10), plant produced (human) (UniProt P22301). The description is as above.
Data set [3] deals with the molecule itself. The description is as above.
Data set [4] concerns the molecule itself. Put plainly: non-reducing SDS-PAGE with Western blot; 50 ng recombinant E. coli produced hIL-10 (R&D Systems) separated under non-reducing conditions on a NuPAGE 12% Bis-Tris gel; detected with an antibody against hIL-10.

In the case of “human IL-10^mono fused to the C-terminus of constant domains 2 and 3 of human immunoglobulin A2m1 (Fcα-hIL-10^mono), plant produced (from UniProt P22301 19-178) (Fc fusion)”, in data set [1], the stoichiometry N is 2.
Turning to “human IL-10 fused to the C-terminus of constant domains 2 and 3 of human immunoglobulin A2m1 (Fcα-hIL-10), plant produced (from UniProt P22301 19-178) (Fc fusion)”, the stoichiometry N in data set [2] is 2.

B1: plant produced human interleukin-10 (natural protein, UniProt P22301 19-178, looked up)
chain: SPGQGTQSENSCTHFPGNLPNMLRDLRDAFSRVKTFFQMKDQLDNLLLKESLLEDFKGYLGCQALSEMIQFYLEEVMPQAENQDPDIKAHVNSLGENLKTLRLRLRRCHRFLPCENKSKAVEQVKNAFNKLQEKGIYKAMSEFDIFINYIEAYMTMKIRN
notes: signal peptide in the construct; human interleukin-10, complete native open reading frame (178 amino acids including the N-terminal signal peptide); the NcoI site adds two extra amino acids to the N-terminus of the signal peptide; Secreted through its own signal peptide; also called hIL-10; human IL-10; source: Nicotiana benthamiana leaves, agro-infiltrated (transient), in desalted crude extract
Consider B1, for which the “stoichiometry N” value in data set [3] is no less than 2.

B2: recombinant E. coli produced human IL-10 (natural protein, UniProt P22301 19-178, looked up)
chain: SPGQGTQSENSCTHFPGNLPNMLRDLRDAFSRVKTFFQMKDQLDNLLLKESLLEDFKGYLGCQALSEMIQFYLEEVMPQAENQDPDIKAHVNSLGENLKTLRLRLRRCHRFLPCENKSKAVEQVKNAFNKLQEKGIYKAMSEFDIFINYIEAYMTMKIRN
notes: human interleukin-10, recombinant, E. coli produced, 18 kDa on the blot; also called r hIL-10; E. coli produced hIL-10; source: bought: R&D Systems (recombinant, E. coli produced)
With B2, the “stoichiometry N” value in data set [4] was no less than 2.
